{"source": "paper PMC5775349", "key": {"[1]": {"target": "40S ribosomes of cells with WT uS7 (S. cerevisiae | S. cerevisiae (endogenous in yeast cells)) (UniProt P26783)", "experiment": "co-sedimentation; yeast lysate in TSM buffer (10 mM Tris-HCl pH7.4, 100 mM NaCl, 30 mM MgCl2), 10-40% sucrose gradient ultracentrifugation; fractions blotted with anti-HA and anti-Rio2; densitometry, duplicate experiments"}, "[2]": {"target": "40S ribosomes of S223A cells (S. cerevisiae | S. cerevisiae (endogenous in yeast cells)) (UniProt P26783)", "experiment": "co-sedimentation; yeast lysate in TSM buffer (10 mM Tris-HCl pH7.4, 100 mM NaCl, 30 mM MgCl2), 10-40% sucrose gradient ultracentrifugation; fractions blotted with anti-HA and anti-Rio2; densitometry, duplicate experiments"}}}
{"substance": "Rio2, endogenous (from UniProt P40160 1-425) (natural protein)", "values": [{"measurement": "percent of Rio2 in the 40S fraction", "setting": "[1]", "result": 41, "unit": "%"}, {"measurement": "percent of Rio2 in the 40S fraction", "setting": "[2]", "result": 28, "unit": "%"}]}
